Reference: US10660939
Each block holds one binder with its values, some of them ahead of it. Positions of bridges follow the written chain, without caps; N, C: chain ends. Non-standard residues stand in square brackets, D forms with d. Dab = NCC[C@H](N)C(=O)O

How the values were obtained:
[1] = molecular target: human melanocortin receptor-4 (human) (UniProt P32245); experiment: competition with [I125]-NDP-α-MSH, hMC4r HEK-293 membranes
[2] = molecular target: human melanocortin receptor-4 (human) (UniProt P32245); experiment: competition with Eu-NDP-α-MSH, hMC4r HEK-293 membranes
[3] = molecular target: human melanocortin receptor-4 (human) (UniProt P32245); experiment: cell-based or functional assay
[4] = molecular target: human melanocortin receptor-4 (human), P32245; experiment: competition with [I125]-NDP-α-MSH, hMC4r HEK-293 membranes; conditions: remark: other sources report otherwise
human melanocortin receptor-4 (human), P32245, sequence (P32245 whole entry): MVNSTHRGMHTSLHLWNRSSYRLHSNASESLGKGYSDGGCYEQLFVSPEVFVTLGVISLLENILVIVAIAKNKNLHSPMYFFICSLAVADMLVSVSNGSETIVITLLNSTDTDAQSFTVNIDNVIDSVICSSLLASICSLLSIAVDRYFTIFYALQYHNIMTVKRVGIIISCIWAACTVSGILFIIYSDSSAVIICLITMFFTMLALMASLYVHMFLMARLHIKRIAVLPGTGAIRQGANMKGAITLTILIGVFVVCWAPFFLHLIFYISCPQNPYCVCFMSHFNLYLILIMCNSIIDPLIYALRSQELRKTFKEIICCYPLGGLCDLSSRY

human melanocortin receptor-4 (human), sequence (P32245 whole entry): as above

Ki [1]: 35 nM
B1: Peptide No. 136 (peptide)
peptide: RXXFRWX
modifications: N-terminal Ac; Dab 2 (X); Dab 3 (X); D-Phe 4; hGlu 7 (X); cyclo(Dab 2-hGlu 7); C-terminal OH

Ki [2]: 4 nM
EC50 (cAMP) [3]: 0.065 nM
intrinsic activity (cAMP, NDP-α-MSH is 100%) [3]: 96%
B2: Peptide No. 129 (peptide)
peptide: RXXFRWX
modifications: N-terminal Ac; Dab 2 (X); Dab 3 (X); D-Phe 4; hGlu 7 (X); cyclo(Dab 2-hGlu 7); C-terminal NH2

Ki [4]: 4 nM
Binder: Ac-RD[Dab][dF]RWK-NH2 (lactam 2-7) [Peptide No. 163]

Ki [1]: 45 nM
B3: Peptide No. 144 (peptide)
peptide: RXXFRWX
modifications: N-terminal Ac; hGlu 2 (X); Dab 3 (X); D-Phe 4; Dab 7 (X); cyclo(hGlu 2-Dab 7); C-terminal OH

Ki [2]: 2 nM
EC50 (cAMP) [3]: 0.06 nM
intrinsic activity (cAMP, NDP-α-MSH is 100%) [3]: 98%
B4: Peptide No. 127 (peptide)
peptide: RXXFRWX
modifications: N-terminal Ac; hGlu 2 (X); Dab 3 (X); D-Phe 4; Dab 7 (X); cyclo(hGlu 2-Dab 7); C-terminal NH2

Ki [4]: 57 nM
Binder: Ac-RD[Dab][dF]RWK-OH (lactam 2-7) [Peptide No. 164]
